This data set concerns Escherichia coli TOP10. Nature of the data set: shrunken log2 fold change of peptide-encoding DNA abundance (4.5 h post-induction vs induction); higher = less antimicrobial activity (less host growth inhibition). The settings on record: time post-induction: 4.5 h; library: site-saturation at positions 5, 18, 19, 20.

Experimental findings from the supplement of paper PMC9112550, “Optimization of the antimicrobial peptide Bac7 by deep mutational scanning” (BMC Biology, 2022) are described below.
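Also: peptides expressed intracellularly from a pBAD plasmid library in pooled LB shake-flask culture, induced with 0.3% L-arabinose, DNA abundance read by NGS, three biological replicates, DESeq2 with apeglm shrinkage.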

On to RRIRERPPRLPRPRPRPNHTPRP, for which the “shrunken log2 fold change” value was -0.58.
Regarding RRIRERPPRLPRPRPRPMRMPRP, the “shrunken log2 fold change” value is -0.0542.
For RRIRCRPPRLPRPRPRPYEGPRP, the “shrunken log2 fold change” value is -0.103.
In the case of RRIRQRPPRLPRPRPRPPQKPRP, the “shrunken log2 fold change” value is -0.167.
As for RRIRTRPPRLPRPRPRPTNPPRP, the “shrunken log2 fold change” value is -0.374.
For the sequence RRIRSRPPRLPRPRPRPFFIPRP, the “shrunken log2 fold change” value is -0.547.
The figure for RRIRVRPPRLPRPRPRPVWDPRP is 0.142; for RRIRNRPPRLPRPRPRPCKCPRP it is 0.00489; for RRIRKRPPRLPRPRPRPKAQPRP it is 0.313.
Consider RRIRPRPPRLPRPRPRPTLQPRP, for which the “shrunken log2 fold change” value stood at 0.353.
Consider RRIRWRPPRLPRPRPRPGWAPRP, for which the “shrunken log2 fold change” value was determined as 0.845.
Regarding RRIRTRPPRLPRPRPRPGMHPRP, the “shrunken log2 fold change” value was 0.0032.
The value for RRIRMRPPRLPRPRPRPPDGPRP was 1.41.
Turning to RRIRSRPPRLPRPRPRPTFDPRP, the “shrunken log2 fold change” value is 0.0254.
The value for RRIRGRPPRLPRPRPRPHPLPRP was 0.101; that for RRIRTRPPRLPRPRPRPYYIPRP was -0.845.
In the case of RRIRQRPPRLPRPRPRPTSRPRP, the “shrunken log2 fold change” value was -0.0729.
As for RRIRLRPPRLPRPRPRPKFCPRP, the “shrunken log2 fold change” value is -0.0573.
The figure for RRIRCRPPRLPRPRPRPRYVPRP is -0.22; for RRIRERPPRLPRPRPRPAPCPRP it is 0.0086; for RRIRVRPPRLPRPRPRPWTDPRP it is -0.0083.
The value for RRIRQRPPRLPRPRPRPMTNPRP was -0.0671.
For RRIRDRPPRLPRPRPRPELQPRP, the “shrunken log2 fold change” value is 0.072.
The value for RRIRCRPPRLPRPRPRPEHFPRP was -0.0319; that for RRIRCRPPRLPRPRPRPDMDPRP was -0.00476; that for RRIRIRPPRLPRPRPRPPQEPRP was -0.0258.
The value for RRIRARPPRLPRPRPRPNQFPRP was -0.014; that for RRIRRRPPRLPRPRPRPKDPPRP was 0.121; that for RRIRTRPPRLPRPRPRPQDHPRP was -0.805.
Regarding RRIRERPPRLPRPRPRPIPMPRP, the “shrunken log2 fold change” value was -0.136.
On to RRIRVRPPRLPRPRPRPCFQPRP, for which the “shrunken log2 fold change” value is -0.313.
On to RRIRPRPPRLPRPRPRPTFYPRP, for which the “shrunken log2 fold change” value is -0.235.
Turning to RRIRIRPPRLPRPRPRPEFIPRP, the “shrunken log2 fold change” value is -0.00702.
For RRIRWRPPRLPRPRPRPRTLPRP, the “shrunken log2 fold change” value was 0.565.
Take RRIRFRPPRLPRPRPRPVIPPRP: the “shrunken log2 fold change” value was -0.102.
As for RRIRIRPPRLPRPRPRPNSWPRP, the “shrunken log2 fold change” value was -0.691.
On to RRIRMRPPRLPRPRPRPKKAPRP, for which the “shrunken log2 fold change” value was found to be 0.0459.
Turning to RRIRCRPPRLPRPRPRPKACPRP, the “shrunken log2 fold change” value was 0.0182.
The value for RRIRTRPPRLPRPRPRPFKNPRP was 0.0716.
In the case of RRIRDRPPRLPRPRPRPFWSPRP, the “shrunken log2 fold change” value was determined as 0.000201.
Regarding RRIRIRPPRLPRPRPRPESDPRP, the “shrunken log2 fold change” value worked out at 0.052.
Take RRIRDRPPRLPRPRPRPEMAPRP: the “shrunken log2 fold change” value stood at 0.0683.
On to RRIRTRPPRLPRPRPRPDTHPRP, for which the “shrunken log2 fold change” value was -0.424.
The figure for RRIRQRPPRLPRPRPRPCCFPRP is 0.0639.
The value for RRIRLRPPRLPRPRPRPIRMPRP was -0.0243; that for RRIRNRPPRLPRPRPRPYDLPRP was -0.166.
With RRIRDRPPRLPRPRPRPRLMPRP, the “shrunken log2 fold change” value is 0.163.
In the case of RRIRERPPRLPRPRPRPVDYPRP, the “shrunken log2 fold change” value was determined as 0.0839.
With RRIRNRPPRLPRPRPRPAYGPRP, the “shrunken log2 fold change” value came to 0.118.
The figure for RRIRIRPPRLPRPRPRPRHCPRP is 0.0849; for RRIRSRPPRLPRPRPRPQDIPRP it is -0.296.
With RRIRTRPPRLPRPRPRPMGQPRP, the “shrunken log2 fold change” value came to 0.103.
For the sequence RRIRFRPPRLPRPRPRPLSEPRP, the “shrunken log2 fold change” value was -0.22.
Consider RRIRTRPPRLPRPRPRPWPHPRP, for which the “shrunken log2 fold change” value was -0.091.
As to RRIRRRPPRLPRPRPRPYPRPRP, the “shrunken log2 fold change” value was 0.207.
With RRIRHRPPRLPRPRPRPFKNPRP, the “shrunken log2 fold change” value is -0.0803.
Regarding RRIRGRPPRLPRPRPRPACFPRP, the “shrunken log2 fold change” value worked out at 0.939.
For the sequence RRIRCRPPRLPRPRPRPAITPRP, the “shrunken log2 fold change” value was -0.372.
With RRIRERPPRLPRPRPRPAFHPRP, the “shrunken log2 fold change” value was -0.154.
For the sequence RRIRNRPPRLPRPRPRPNGCPRP, the “shrunken log2 fold change” value was -0.0605.
Take RRIRQRPPRLPRPRPRPPEIPRP: the “shrunken log2 fold change” value is -0.0671.
For RRIRDRPPRLPRPRPRPYESPRP, the “shrunken log2 fold change” value came to 0.00683.
As to RRIRMRPPRLPRPRPRPWLKPRP, the “shrunken log2 fold change” value was -0.11.
For RRIRIRPPRLPRPRPRPIPIPRP, the “shrunken log2 fold change” value is -0.317.
Take RRIRPRPPRLPRPRPRPIWQPRP: the “shrunken log2 fold change” value came out at 0.0572.
With RRIRVRPPRLPRPRPRPYNIPRP, the “shrunken log2 fold change” value is -1.26.
Turning to RRIRIRPPRLPRPRPRPTDAPRP, the “shrunken log2 fold change” value is -0.0317.
The value for RRIRIRPPRLPRPRPRPMCRPRP was -0.236.
Regarding RRIRERPPRLPRPRPRPHMVPRP, the “shrunken log2 fold change” value is -0.174.
The value for RRIRDRPPRLPRPRPRPGEAPRP was 1.1; that for RRIRGRPPRLPRPRPRPDLHPRP was 0.655.
In the case of RRIRTRPPRLPRPRPRPQTGPRP, the “shrunken log2 fold change” value is -0.128.
In the case of RRIRIRPPRLPRPRPRPDHMPRP, the “shrunken log2 fold change” value was -0.87.
The value for RRIRLRPPRLPRPRPRPKGDPRP was 0.182; that for RRIRHRPPRLPRPRPRPIEWPRP was -0.02.
Turning to RRIRVRPPRLPRPRPRPYQQPRP, the “shrunken log2 fold change” value is -0.323.
Turning to RRIRYRPPRLPRPRPRPRIIPRP, the “shrunken log2 fold change” value is -0.457.
Consider RRIRWRPPRLPRPRPRPCLDPRP, for which the “shrunken log2 fold change” value is -0.0586.
As for RRIRIRPPRLPRPRPRPFKWPRP, the “shrunken log2 fold change” value was -0.128.
As to RRIRLRPPRLPRPRPRPHEMPRP, the “shrunken log2 fold change” value is -0.377.
On to RRIRKRPPRLPRPRPRPPHNPRP, for which the “shrunken log2 fold change” value came to 0.465.
Consider RRIRNRPPRLPRPRPRPMQKPRP, for which the “shrunken log2 fold change” value came out at 0.0161.
The value for RRIRMRPPRLPRPRPRPCNAPRP was 0.0226.
RRIRWRPPRLPRPRPRPLTIPRP: the “shrunken log2 fold change” value is -0.162.
With RRIRMRPPRLPRPRPRPEVKPRP, the “shrunken log2 fold change” value is 2.97.
Turning to RRIRCRPPRLPRPRPRPTHCPRP, the “shrunken log2 fold change” value came out at 0.363.
RRIRHRPPRLPRPRPRPNWTPRP: the “shrunken log2 fold change” value is -0.0102.
In the case of RRIRDRPPRLPRPRPRPNEFPRP, the “shrunken log2 fold change” value is -0.0102.
Consider RRIRWRPPRLPRPRPRPSMVPRP, for which the “shrunken log2 fold change” value was -0.129.
Regarding RRIRFRPPRLPRPRPRPDRVPRP, the “shrunken log2 fold change” value was 0.0813.
The figure for RRIRVRPPRLPRPRPRPPNMPRP is -0.316; for RRIRVRPPRLPRPRPRPMYRPRP it is 0.0262.
The value for RRIRYRPPRLPRPRPRPTQSPRP was 0.0623.
As for RRIRYRPPRLPRPRPRPLRPPRP, the “shrunken log2 fold change” value amounted to 0.786.
In the case of RRIRCRPPRLPRPRPRPVTEPRP, the “shrunken log2 fold change” value was -0.127.
With RRIRQRPPRLPRPRPRPGQDPRP, the “shrunken log2 fold change” value was 0.102.
For RRIRSRPPRLPRPRPRPKGRPRP, the “shrunken log2 fold change” value is 0.0764.
Consider RRIRDRPPRLPRPRPRPIYDPRP, for which the “shrunken log2 fold change” value is -0.0423.
For the sequence RRIRSRPPRLPRPRPRPIIEPRP, the “shrunken log2 fold change” value was -0.114.
As to RRIRTRPPRLPRPRPRPAILPRP, the “shrunken log2 fold change” value is -0.157.
With RRIRIRPPRLPRPRPRPTDWPRP, the “shrunken log2 fold change” value is 0.0724.
The figure for RRIRWRPPRLPRPRPRPAQEPRP is 0.149; for RRIRARPPRLPRPRPRPWFAPRP it is 0.212.
Regarding RRIRNRPPRLPRPRPRPLVWPRP, the “shrunken log2 fold change” value amounted to 0.124.
With RRIRARPPRLPRPRPRPYIVPRP, the “shrunken log2 fold change” value was -0.882.
Consider RRIRMRPPRLPRPRPRPIHWPRP, for which the “shrunken log2 fold change” value was -0.257.
In the case of RRIRARPPRLPRPRPRPNTWPRP, the “shrunken log2 fold change” value stood at 0.0711.
Take RRIRWRPPRLPRPRPRPRCDPRP: the “shrunken log2 fold change” value worked out at 0.429.
Regarding RRIRERPPRLPRPRPRPRCGPRP, the “shrunken log2 fold change” value turned out to be 0.146.
Take RRIRWRPPRLPRPRPRPISDPRP: the “shrunken log2 fold change” value was -0.154.
As for RRIRLRPPRLPRPRPRPIHRPRP, the “shrunken log2 fold change” value is -0.163.
The figure for RRIRQRPPRLPRPRPRPLYTPRP is -0.671.
As for RRIRGRPPRLPRPRPRPNEDPRP, the “shrunken log2 fold change” value worked out at 0.468.
Take RRIRARPPRLPRPRPRPNSMPRP: the “shrunken log2 fold change” value is -0.527.
Regarding RRIRYRPPRLPRPRPRPQCKPRP, the “shrunken log2 fold change” value was -1.34.
As for RRIRLRPPRLPRPRPRPVMAPRP, the “shrunken log2 fold change” value stood at 0.0839.
In the case of RRIRFRPPRLPRPRPRPRDLPRP, the “shrunken log2 fold change” value is -0.00831.
The figure for RRIRKRPPRLPRPRPRPLRGPRP is 0.873.
For the sequence RRIRLRPPRLPRPRPRPPFNPRP, the “shrunken log2 fold change” value was -0.116.
The value for RRIRSRPPRLPRPRPRPDRMPRP was -0.129.
With RRIRSRPPRLPRPRPRPFFFPRP, the “shrunken log2 fold change” value amounted to 0.168.
RRIRTRPPRLPRPRPRPAIQPRP: the “shrunken log2 fold change” value was -0.216.
As to RRIRPRPPRLPRPRPRPIEIPRP, the “shrunken log2 fold change” value was -0.0794.
In the case of RRIRRRPPRLPRPRPRPWWSPRP, the “shrunken log2 fold change” value came to 0.105.
The value for RRIRSRPPRLPRPRPRPHNDPRP was -0.309.
